From the RNAGym collection of RNA variant scans (doi:10.1021/acssynbio.7b00057)

B1: Pistol ribozyme (parent)
chain: GGGUCGUUGUUCCAUAAUCGCGUGGAUAUGGCACGCAAGUUUCUACCGGGCACCGUAAAUGUCCGACUGGAGCCGUUCGGGCGGCUAUAAACAGACCUCAGGCCCGAAGCGUGGCGGCACCUGCCGCCGGUGGUAAAAAAGAUCGGAAGAGCACACGUCU

Variants of: B1
Assay: aptazyme ON/OFF ratio, guanine; higher = stronger switching; co-transcriptional cleavage with and without guanine

Which “aptazyme ON/OFF ratio” value does the source give for U7A U8C G9C U10C U11C C12G C13U here?
Its value is 1.07.

Which “aptazyme ON/OFF ratio” value does the source give for U7A U8C G9C U10C U11C C12G C13A here?
The value was 1.02.

For U7A U8C G9A U11G C12A C13G, which “aptazyme ON/OFF ratio” value is on record?
Its value is 1.21.

Which “aptazyme ON/OFF ratio” value does the source give for U7A U8C G9A U11G C12A C13U here?
The value was 1.08.

For U7A U8C G9A U11G C12A C13A, which “aptazyme ON/OFF ratio” value is on record?
The value was 1.22.

For U7A U8C G9A U10G C12A, which “aptazyme ON/OFF ratio” value is on record?
Its value is 1.1.

For U7A U8C G9A U10G C12U, which “aptazyme ON/OFF ratio” value is on record?
Its value is 1.23.

With U7A U8C G9A U10G C12G as the variant, how does the “aptazyme ON/OFF ratio” value read?
The value was 1.15.

Which “aptazyme ON/OFF ratio” value does the source give for U7A U8C G9A U10C C12G C13U here?
Its value is 1.23.

Which “aptazyme ON/OFF ratio” value does the source give for U7A U8C G9A U10C C12G C13A here?
Its value is 1.12.

For U7A U8C G9A U10C C12G C13G, which “aptazyme ON/OFF ratio” value is on record?
Its value is 1.16.

With U7A U8C G9A U10C U11C as the variant, how does the “aptazyme ON/OFF ratio” value read?
The value was 1.08.

With U7A U8C G9A U10C U11A as the variant, how does the “aptazyme ON/OFF ratio” value read?
The value was 1.24.

Which “aptazyme ON/OFF ratio” value does the source give for U7A U8C G9A U10C U11G here?
The value was 1.16.

Which “aptazyme ON/OFF ratio” value does the source give for U7A U8C G9C C12G C13A here?
Its value is 1.07.

Which “aptazyme ON/OFF ratio” value does the source give for U7A U8C G9C C12G C13G here?
Its value is 1.09.

Which “aptazyme ON/OFF ratio” value does the source give for U7A U8C G9C C12G C13U here?
Its value is 1.18.

Which “aptazyme ON/OFF ratio” value does the source give for U7A U8C G9A U10C U11C C12G here?
The value was 1.11.

With U7A U8C G9A U10C U11C C12A as the variant, how does the “aptazyme ON/OFF ratio” value read?
Its value is 1.18.

Which “aptazyme ON/OFF ratio” value does the source give for U7A U8C G9A U10C U11C C12U here?
Its value is 1.04.

With U7A U8C G9A U10A U11C C12U as the variant, how does the “aptazyme ON/OFF ratio” value read?
Its value is 1.09.

Which “aptazyme ON/OFF ratio” value does the source give for U7A U8C G9C U10C C12A C13A here?
Its value is 1.03.

With U7A U8C G9C U10C C12A C13G as the variant, how does the “aptazyme ON/OFF ratio” value read?
The value was 1.13.

For U7A U8C G9C U10C C12A C13U, which “aptazyme ON/OFF ratio” value is on record?
Its value is 0.999.

Which “aptazyme ON/OFF ratio” value does the source give for U7A U8C G9C U10A C12G C13G here?
The value was 1.14.

With U7A U8C G9C U10A C12G C13U as the variant, how does the “aptazyme ON/OFF ratio” value read?
Its value is 1.17.

For U7A U8C G9C U10A C12G C13A, which “aptazyme ON/OFF ratio” value is on record?
The value was 1.1.

For U7A U8C G9C U10C U11G C12G C13A, which “aptazyme ON/OFF ratio” value is on record?
The value was 1.12.

For U7A U8C G9C U10A U11C C12G C13G, which “aptazyme ON/OFF ratio” value is on record?
Its value is 1.27.

Which “aptazyme ON/OFF ratio” value does the source give for U7A U8C G9C U10A U11C C12G C13U here?
The value was 1.27.

Which “aptazyme ON/OFF ratio” value does the source give for U7A U8C G9C U10A U11C C12G C13A here?
The value was 1.29.

Which “aptazyme ON/OFF ratio” value does the source give for U7A U8C G9C U10A U11A C12G C13U here?
Its value is 1.07.

Which “aptazyme ON/OFF ratio” value does the source give for U7A U8C G9C U10A U11A C12G C13G here?
Its value is 1.08.

Which “aptazyme ON/OFF ratio” value does the source give for U7A U8C G9C U10A U11A C12G C13A here?
The value was 1.05.

Which “aptazyme ON/OFF ratio” value does the source give for U7A U8C G9C U10C U11A C12A C13A here?
Its value is 1.01.

For U7A U8C G9C U10C U11A C12A C13U, which “aptazyme ON/OFF ratio” value is on record?
Its value is 1.03.

Which “aptazyme ON/OFF ratio” value does the source give for U7A U8C G9C U10C U11A C12A C13G here?
The value was 1.06.

For U7A U8C G9C U10A U11A C12U C13G, which “aptazyme ON/OFF ratio” value is on record?
The value was 1.08.

For U7A U8C G9C U10A U11A C12U C13U, which “aptazyme ON/OFF ratio” value is on record?
The value was 1.05.

For U7A U8C G9C U10A U11A C12U C13A, which “aptazyme ON/OFF ratio” value is on record?
Its value is 1.09.

Which “aptazyme ON/OFF ratio” value does the source give for U7A U8C G9C U10C U11C C12U C13A here?
The value was 1.02.

With U7A U8C G9C U10C U11C C12U C13G as the variant, how does the “aptazyme ON/OFF ratio” value read?
Its value is 1.02.

With U7A U8C G9C U10C U11C C12U C13U as the variant, how does the “aptazyme ON/OFF ratio” value read?
Its value is 0.988.

Which “aptazyme ON/OFF ratio” value does the source give for U7A U8C G9A U10G U11A C12G here?
The value was 1.27.

For U7A U8C G9A U10G U11A C12U, which “aptazyme ON/OFF ratio” value is on record?
Its value is 1.04.

With U7A U8C G9A U10G U11A C12A as the variant, how does the “aptazyme ON/OFF ratio” value read?
Its value is 1.13.

For U7A U8C G9A U10C C13G, which “aptazyme ON/OFF ratio” value is on record?
Its value is 1.07.

For U7A U8C G9A U10C C13U, which “aptazyme ON/OFF ratio” value is on record?
Its value is 1.12.

Which “aptazyme ON/OFF ratio” value does the source give for U7A U8C G9A U10C C13A here?
The value was 1.09.

With U7A U8C G9A U11A C12G C13U as the variant, how does the “aptazyme ON/OFF ratio” value read?
The value was 1.16.

With U7A U8C G9A U11A C12G C13A as the variant, how does the “aptazyme ON/OFF ratio” value read?
The value was 1.11.

With U7A U8C G9A U11A C12G C13G as the variant, how does the “aptazyme ON/OFF ratio” value read?
The value was 1.21.

With U7A U8C G9A U11A C12U C13U as the variant, how does the “aptazyme ON/OFF ratio” value read?
Its value is 1.18.

Which “aptazyme ON/OFF ratio” value does the source give for U7A U8C G9A U11A C12U C13G here?
The value was 1.13.

With U7A U8C G9A U11A C12U C13A as the variant, how does the “aptazyme ON/OFF ratio” value read?
The value was 1.25.

Which “aptazyme ON/OFF ratio” value does the source give for U7A U8C G9C U10C U11G C12G here?
The value was 1.08.

For U7A U8C G9C U10C U11G C12A, which “aptazyme ON/OFF ratio” value is on record?
The value was 1.13.

With U7A U8C G9A U10C U11A C12A C13A as the variant, how does the “aptazyme ON/OFF ratio” value read?
Its value is 1.13.

With U7A U8C G9A U10C U11A C12A C13U as the variant, how does the “aptazyme ON/OFF ratio” value read?
The value was 1.19.

With U7A U8C G9A U10C U11A C12A C13G as the variant, how does the “aptazyme ON/OFF ratio” value read?
Its value is 1.1.

With U7A U8C G9C U10A C12U C13A as the variant, how does the “aptazyme ON/OFF ratio” value read?
The value was 1.05.

For U7A U8C G9C U10A C12U C13U, which “aptazyme ON/OFF ratio” value is on record?
Its value is 1.07.

Which “aptazyme ON/OFF ratio” value does the source give for U7A U8C G9C U10A C12U C13G here?
Its value is 1.07.

With U7A U8C G9C U10C C13U as the variant, how does the “aptazyme ON/OFF ratio” value read?
Its value is 1.06.

With U7A U8C G9C U10C C13G as the variant, how does the “aptazyme ON/OFF ratio” value read?
The value was 1.07.

Which “aptazyme ON/OFF ratio” value does the source give for U7A U8C G9C U10C C13A here?
Its value is 1.06.

With U7A U8C G9C C13A as the variant, how does the “aptazyme ON/OFF ratio” value read?
Its value is 1.07.

For U7A U8C G9C C13U, which “aptazyme ON/OFF ratio” value is on record?
The value was 1.07.

With U7A U8C G9C C13G as the variant, how does the “aptazyme ON/OFF ratio” value read?
Its value is 1.06.

With U7A U8C G9A U10A U11G C12U C13U as the variant, how does the “aptazyme ON/OFF ratio” value read?
The value was 1.31.

For U7A U8C G9A U10A U11G C12U C13A, which “aptazyme ON/OFF ratio” value is on record?
Its value is 1.2.

For U7A U8C G9A U10A U11G C12U C13G, which “aptazyme ON/OFF ratio” value is on record?
The value was 1.24.

With U7A U8C G9A U10C U11G C13G as the variant, how does the “aptazyme ON/OFF ratio” value read?
The value was 1.37.

With U7A U8C G9A U10C U11G C13A as the variant, how does the “aptazyme ON/OFF ratio” value read?
Its value is 1.33.

With U7A U8C G9A U10C U11G C13U as the variant, how does the “aptazyme ON/OFF ratio” value read?
The value was 1.46.

For U7A U8C G9A U10C U11A C13U, which “aptazyme ON/OFF ratio” value is on record?
The value was 1.28.

With U7A U8C G9A U10C U11A C13G as the variant, how does the “aptazyme ON/OFF ratio” value read?
The value was 1.17.

With U7A U8C G9A U10C U11A C13A as the variant, how does the “aptazyme ON/OFF ratio” value read?
Its value is 1.18.

For U7A U8C G9A U11A C13U, which “aptazyme ON/OFF ratio” value is on record?
The value was 1.3.

Which “aptazyme ON/OFF ratio” value does the source give for U7A U8C G9A U11A C13A here?
The value was 1.16.

Which “aptazyme ON/OFF ratio” value does the source give for U7A U8C G9A U11A C13G here?
The value was 1.09.

With U7A U8C G9A U10C U11G C12A C13G as the variant, how does the “aptazyme ON/OFF ratio” value read?
The value was 1.33.

Which “aptazyme ON/OFF ratio” value does the source give for U7A U8C G9A U10C U11G C12A C13A here?
The value was 1.12.
